Test results from IntAct's records for PubMed 14685257.

B1: Polyadenylate-binding protein-interacting protein 2 (Homo sapiens), Q9BPZ3 (parent)
chain: MKDPSRSSTSPSIINEDVIINGHSHEDDNPFAEYMWMENEEEFNRQIEEELWEEEFIERCFQEMLEEEEEHEWFIPARDLPQTMDQIQDQFNDLVISDGSSLEDLVVKSNLNPNAKEFVPGVKYGNI

Variants of: B1
Details: with pabp1_human PABPC1, P11940
Sequence of pabp1_human PABPC1, P11940 (P11940 whole entry): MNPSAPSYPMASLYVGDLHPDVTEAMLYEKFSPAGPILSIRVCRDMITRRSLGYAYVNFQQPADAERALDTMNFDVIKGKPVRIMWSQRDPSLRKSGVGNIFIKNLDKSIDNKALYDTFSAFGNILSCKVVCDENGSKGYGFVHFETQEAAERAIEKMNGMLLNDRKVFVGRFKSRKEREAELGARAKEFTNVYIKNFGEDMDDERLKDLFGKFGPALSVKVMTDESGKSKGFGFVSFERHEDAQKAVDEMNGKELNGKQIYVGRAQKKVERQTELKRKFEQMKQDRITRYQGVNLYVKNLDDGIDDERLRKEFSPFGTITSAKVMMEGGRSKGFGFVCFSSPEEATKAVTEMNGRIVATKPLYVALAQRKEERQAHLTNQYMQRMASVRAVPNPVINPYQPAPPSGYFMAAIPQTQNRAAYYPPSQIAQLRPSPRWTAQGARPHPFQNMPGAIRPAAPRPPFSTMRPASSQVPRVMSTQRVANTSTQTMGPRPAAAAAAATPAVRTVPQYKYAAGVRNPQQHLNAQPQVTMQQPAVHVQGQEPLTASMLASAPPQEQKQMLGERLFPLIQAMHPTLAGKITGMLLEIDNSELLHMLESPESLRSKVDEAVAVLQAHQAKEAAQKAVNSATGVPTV
With MKDPSRSSTSPSIINEDVIINGHSHEDDNPFAEYMWMENEEEFNRQIEEELWEEEFIERCFQEMLEEEEEHEWFIPARDLPQTMDQIQDQFNDLVISDGSSLEDLVVKSNLNPNAKEFVAGVKYGNI [P120A] the “effect of a mutation on the interaction” value was “decreasing interaction”.
For MKDPSRSSTSPSIINEDVIINGHSHEDDNPFAEYMWMENEEEFNRQIEEELWEEEFIERCFQEMLEEEEEHEWFIPARDLPQTMDQIQDQFNDLVISDGSSLEDLVVKSNANPNAKEFVPGVKYGNI [L111A], the “effect of a mutation on the interaction” value was “decreasing interaction”.
With MKDPSRSSTSPSIINEDVIINGHSHEDDNPFAEYMWMENEEEFNRQIEEELWEEEFIERCFQEMLEEEEEHEWFIPARDLPQTMDQIQDQFNDLVISDGSSLEDLVVKSNLNPNAKEAVPGVKYGNI [F118A] the “effect of a mutation on the interaction” value was “disrupting interaction”.
In the case of MKDPSRSSTSPSIINEDVIINGHSHEDDNPFAEYMWMENEEEFNRQIEEELWEEEFIERCFQEMLEEEEEHEWFIPARDLPQTMDQIQDQFNDLVISDGSSLEDLVVKSNLNANAKEFVPGVKYGNI [P113A], the “effect of a mutation on the interaction” value is reported as “decreasing interaction”.
In the case of MKDPSRSSTSPSIINEDVIINGHSHEDDNPFAEYMWMENEEEFNRQIEEELWEEEFIERCFQEMLEEEEEHEWFIPARDLPQTMDQIQDQFNDLVISDGSSLEDLVVKSNLNPNAAEFVPGVKYGNI [K116A], the “effect of a mutation on the interaction” value is reported as “decreasing interaction”.
For MKDPSRSSTSPSIINEDVIINGHSHEDDNPFAEYMWMENEEEFNRQIEEELWEEEFIERCFQEMLEEEEEHEWFIPARDLPQTMDQIQDQFNDLVISDGSSLEDLVVKSNLNPNAKAFVPGVKYGNI [E117A], the “effect of a mutation on the interaction” value was “decreasing interaction”.
For MKDPSRSSTSPSIINEDVIINGHSHEDDNPFAEYMWMENEEEFNRQIEEELWEEEFIERCFQEMLEEEEEHEWFIPARDLPQTMDQIQDQFNDLVISDGSSLEDLVVKSNLNPNLKEFVPGVKYGNI [A115L], the “effect of a mutation on the interaction” value was “decreasing interaction”.
